Assay [1] has as its target T1, 筛选及检测用人PD-1抗原 (human PD-1 extracellular domain with His tag, Sino Biological Cat.10377-H08H) (human, UniProt Q15116 25-167).
T1 construct: Bought product; the entry holds the extracellular domain and the His tag; also called PD-1蛋白
Kind of assay: SPR Biacore T200, antibody captured on protein A CM5 chip, PD-1-His as analyte.

The target of assay [2] is T2, 筛选及检测用人PD-1-Fc抗原 (human PD-1-Fc, 百英生物 B3789) (human).
T2 construct: also called 带Fc标签的PD-1融合蛋白
As to the kind of experiment: competition ELISA, PD-1-Fc coated, biotinylated PD-L1 as competitor, antibody titrated.

B1: WO2017054646中的IgG4型PD-1Ab646 (antibody, V domains shown)
VH: EVQLVESGGGLVQPGGSLRLSCAASGFTFSSYMMSWVRQAPGKGLEWVATISGGGANTYYPDSVKGRFTISRDNAKNSLYLQMNSLRAEDTAVYYCARQLYYFDYWGQGTTVTVSS
VL: DIQMTQSPSSLSASVGDRVTITCLASQTIGTWLTWYQQKPGKAPKLLIYTATSLADGVPSRFSGSGSGTDFTLTISSLQPEDFATYYCQQVYSIPWTFGGGTKVEIKR
notes: IgG4 positive control
In assay [1], B1 showed a Kd of 7.75 nM, a koff of 0.000479 s⁻¹ and a kon of 61800 M⁻¹ s⁻¹. In addition, the IC50 in assay [2] is 2.79 nM.

The values are drawn from patent CN114573704A (dated 2022).
